From patent publication US12522842B2, “Glutamine synthetase mutant having glufosinate resistance and application thereof and cultivation method therefor” (GEVOTO LLC, priority 2019, dated 2026)
Substitutions are numbered along the chain they refer to. Names and notes keep the numbering of the source.

B1: OR: rice GS mutant, H296R versus SEQ ID NO. 1 (SEQ ID NO. 32) (protein)
chain: MASLTDLVNLNLSDTTEKIIAEYIWIGGSGMDLRSKARTLSGPVTDPSKLPKWNYDGSSTGQAPGEDSEVILYPQAIFKDPFRKGNNILVMCDCYTPAGEPIPTNKRHNAAKIFSSPEVASEEPWYGIEQEYTLLQKDINWPLGWPVGGFPGPQGPYYCGIGADKSFGRDIVDSHYKACLYAGINISGINGEVMPGQWEFQVGPSVGISAGDQVWVARYILERITEIAGVVVSFDPKPIPGDWNGAGAHTNYSTKSMRNDGGYEIIKSAIEKLKLRHKEHISAYGEGNERRLTGRRETADINTFSWGVANRGASVRVGRETEQNGKGYFEDRRPASNMDPYIVTSMIAETTIIWKP
modifications: OR
B2: OsGR: rice GS mutant, S59G and H296R in SEQ ID NO. 1 (SEQ ID NO. 22) (protein)
chain: B1 chain with S59G
modifications: OsGR
B3: TaGS_WT: wild-type wheat glutamine synthetase, SEQ ID NO. 2, control (protein, listed as Triticum aestivum)
chain: MALLTDLLNLDLTDSTEKIIAEYIWIGGSGMDLRSKARTLPGPVTDPSKLPKWNYDGSSTGQAPGEDSEVILYPQAIFKDPFRKGNNILVMCDCYTPAGVPIPTNKRYNAAKIFSNPDVAKEEPWYGIEQEYTLLQKDINWPLGWPVGGFPGPQGPYYCSIGADKSFGRDIVDSHYKACLFAGVNISGINGEVMPGQWEFQVGPTVGISAGDQVWVARYLLERITEIAGVVVTFDPKPIPGDWNGAGAHTNYSTESMRKDGGFKVIVDAVEKLKLKHKEHIAAYGEGNERRLTGKHETADINTFSWGVANRGASVRVGRETEQNGKGYFEDRRPASNMDPYVVTSMIAETTILWKP

Assays:
[1] = tested on: glutamine synthetase-deficient Escherichia coli; test: Growth of glutamine synthetase-deficient E. coli transformed with GS mutants in M9 medium containing glufosinate; assay type: cell-based; settings: for growth of transformed GS-deficient E. coli (normal GS enzymatic activity): medium containing 0 mM glufosinate
Description: According to the sequences of the nucleic acid molecules provided in Example 4, the nucleic acid sequences encoding rice GS mutants OsA, OsC, OsD, OsE, OsF, OsG, OsH, OsI, OsK, OsP, OST, OsV, and OsY were synthesized using chemical synthesis method. Restriction digestion sites (Pac1 and Sbf1) were introduced at both ends thereof, and after restriction digestion, they were linked under the action of ligase to an expression vector (such as pADV7 vector, whose structure is shown in FIG. 4) that was subjected to the same restriction digestion treatment. Then, glutamine synthetase-deficient Escherichia coli was transformed with the resultant. After verification, positive clones were picked up and inoculated in M9 medium containing different concentrations of glufosinate to grow, and the growth status of defective Escherichia coli was observed.
With wild-type rice GS (its amino acid sequence shown in SEQ ID NO. 1 and its encoding gene shown in SEQ ID NO. 4) as a negative control, the glufosinate resistance for the GS mutant OsA (S59A, wherein the amino acid S at site 59 of the rice GS is mutated into A), OsC (S59C), OsD (S59D), OsE (S59E), OsF (S59F), OsG (S59G), OsH (S59H), OsI (S591), OsK (S59K), OsP (S59P), OsT (S59T), OsV (S59V), OsY (S59Y) was detected.
With reference to the detection method of Experimental Example 1, glufosinate resistance of the rice GS mutant OsGR (S59G and H296R, the amino acid S at site 59 of rice GS is mutated into G and the amino acid H at site 296 is mutated into R), the wheat GS mutant TaGR (S59G and H296R, the amino acid S at site 59 of wheat GS is mutated into G and the amino acid H at site 296 is mutated into R), the soybean GS mutant GmGR (S59G and H296R, the amino acid S at site 59 of soybean GS is mutated into G and the amino acid H at site 296 is mutated into R) provided in Example 2 was verified.
With reference to Experimental example 1, the glufosinate resistance of rice GS mutants OA, OD, OE, OG, OI, OK, OM, OP, OQ, OR, OS, OT, and OV provided in Example 3 was detected according to the following method.
With wild-type rice GS as a negative control, the glufosinate resistance of GS mutants OA (H296A, amino acid H at site 296 of rice GS is mutated into A), OD (H296D), OE (H296E), OG (H296G), OI (H2961), OK (H296K), OM (H296M), OP (H296P), OQ (H296Q), OR (H296R), OS (H296S), OT (H296T), OV (H296V) was detected.

[2] = molecular target: rice GS (glutamine synthetase); test: Enzymatic activity of purified rice GS: kinetic parameters and glufosinate IC50; assay type: biochemical, rice (Oryza sativa); settings: inhibition of rice GS by glufosinate
Description: (§1) OsC, OsF, OsG, OsH, OsP, and OsY provided in Example 1, OR provided in Example 3, and rice GS mutant OsGR and wheat GS mutant TaGR provided in Example 2 were detected for their enzymatic kinetic parameter, and enzymatic kinetic parameter in the presence of glufosinate, using wild-type rice GS OsGS_WT and wild-type wheat GS TaGS_WT as controls according to the following method.
(§2) The nucleic acid sequences encoding the above mutants were each cloned into a prokaryotic expression vector pET32a, and the clone was verified by sequencing.
(§3) The mutant enzyme protein was purified with 6His by a standard method, and its concentration was determined with a protein concentration assay kit with Bradford method. The protein was stored in a protein storage solution.
(§4) ELIASA (Detielab, HBS-1096A), glufosinate, substrate sodium L-glutamate (CAS: 6106-04-3).
(1) The composition of a reaction solution for determination of enzymatic activity of glutamine synthetase were as follows: 100 mM Tris-HCl (pH 7.5), 10 mM ATP, 20 mM sodium L-glutamate, 30 mM hydroxylamine, 20 mM MgCl2. 100 μl of the reaction solution after mixed thoroughly was preheated at 35° C. for 5 min, and 10 μl of mutant protein solution (protein concentration of 200 μg/ml) was added to start the reaction. After reaction at 35° C. for 30 min, 110 μl of color developing solution (55 g/L FeCl3·6H2O, 20 g/L trichloroacetic acid, 2.1% concentrated hydrochloric acid) was added to terminate the reaction. The absorbance at 540 nm was measured.

rice (Nipponbare) = test: Glufosinate resistance of transgenic rice after spraying 1x field dose; assay type: in vivo; settings: 1x glufosinate, 450 g/ha, day 7 after spraying
Description: The glufosinate resistance resulting from the OR mutants provided in Example 3 in transgenic rice was detected according to the following method.
The nucleic acid sequence encoding OR was inserted into the pGVP1 vector (see FIG. 11) according to a conventional method to obtain the pGVP1-OR vector.
The pGVP1-OR vector was transformed into competent cells of EHA105 (Agrobacterium tumefaciens), the monoclonal was picked up for colony PCR detection, and positive strains were obtained; then the positive strains were inoculated into 1 mL YEP medium containing 50 μg·mL^−1 kanamycin and 50 μg·mL^−1 rifampicin for propagation, and stored at −80° C. or used in subsequent experiments. […]
Rice plants transformed with OR mutant gene were detected using the PCR method, forward and reverse detection primers were designed according to pGVP1-OR vector sequence and rice reference gene, the PCR amplification products were assayed by 1.5% agarose gel electrophoresis, and those with bands at 452 bp and 629 bp were transgenic plants.
The transplanted transgenic rice seedlings were evenly arranged in the same experimental area (to avoid overlapping leaves). The area of occupied regions of the experimental group and the control group was calculated. […]

[3] = molecular target: wheat GS (glutamine synthetase); test: Enzymatic activity of purified wheat GS: kinetic parameters and glufosinate IC50; assay type: biochemical, wheat (Triticum aestivum); settings: inhibition of wheat GS by glufosinate; read-out: glufosinate resistance parameter IC50
Description: as §1, §2, §3, §4
(1) The composition of a reaction solution for determination of enzymatic activity of glutamine synthetase were as follows: 100 mM Tris-HCl (pH 7.5), 10 mM ATP, 20 mM sodium L-glutamate, 30 mM hydroxylamine, 20 mM MgCl2. 100 μl of the reaction solution after mixed thoroughly was preheated at 35° C. for 5 min, and 10 μl of mutant protein solution (protein concentration of 200 μg/ml) was added to start the reaction. […] The absorbance at 540 nm was measured.

Molecule	growth of transformed GS-deficient E. coli (normal GS enzymatic activity) [1]	growth of transformed E. coli (glufosinate resistance) ([1]; medium containing 10 mM glufosinate)	growth of transformed E. coli (glufosinate resistance) ([1]; medium containing 20 mM glufosinate)	growth of transformed E. coli (glufosinate resistance) ([1]; medium containing 50 mM glufosinate)	glufosinate resistance parameter IC50 [2]	performance of transgenic rice seedlings after spraying glufosinate (rice (Nipponbare))	growth of transformed E. coli (glufosinate resistance) ([1]; media containing 10 mM, 20 mM and 300 mM glufosinate)	growth of transformed E. coli (glufosinate resistance) ([1]; medium containing 300 mM glufosinate)	growth of transformed E. coli (glufosinate resistance) ([1]; media containing 2 mM, 5 mM, 10 mM, and 20 mM glufosinate)	IC50 [3] [µM]
B1	could normally grow	significantly superior to that of the wild type	significantly grew	still significantly grew	much higher than those of the wild-type controls	not significantly affected by glufosinate and continued to grow	–	–	–	–
B2	could normally grow	–	–	–	much higher than those of the wild-type controls	–	grew significantly	grew significantly	–	–
B3	could normally grow	–	–	–	–	–	–	–	could hardly grow	600
